Results reported in patent US11998613B2, “Antibody-drug conjugates containing an anti-mesothelin antibody and uses thereof” (DEVELOPMENT CENTER FOR BIOTECHNOLOGY, priority 2020, dated 2024).

Tests used:
mesothelin protein = mesothelin protein (Homo sapiens, UniProt Q13421); test: Binding kinetics of anti-mesothelin ADCs by surface plasma resonance (Biacore T100); conditions: analyte MSLN
Experimental: The kinetic constant of the anti-mesothelin ADCs interaction against mesothelin was determined by surface plasma resonance (Biacore® T100, Biacore, Inc., Piscataway, NJ). The flow cell of the CM5 wafer was fixed with approximately 10,000 reaction units (RU) of anti-human IgG-Fc (Biacore®) in 10 mM glycine pH 5.0 at 10 μL/min for 600 seconds. 10 μg/mL of anti-mesothelin antibody and anti-mesothelin ADCs diluted in TBS at 10 μl/min were captured on CM5 chips. Four concentrations (from 3.7 to 100 nM) of human mesothelin recombinant protein and zero concentration (flow buffer) in 100 μl/min binding were recorded in PBS containing 1 mM CaCl2 for 3 minutes. The dissociation of the complex was measured for 10 minutes. The water surface was regenerated by injecting 3 M MgCl2 and 3 mM EGTA at 10 μl/min for 60 seconds. The curve obtained after subtracting the reference and buffer signals was taken into the 1:1 Langmuir binding model using the Biacore® T100 evaluation software (Biacore®).

[1] = test system: Ovarian carcinoma cell line OVCAR-3 (MSLN+); test: In vitro cytotoxicity, CellTiter-Glo luminescent cell viability assay, OVCAR-3; assay type: cell-based, human; conditions: OVCAR-3, 72 hours treatment; read-out: Relative IC50 (nM of toxic payload/ADCs)
Experimental: The KLM-1 & OVCAR-3 cell lines were maintained in an atmosphere of 5% CO2 in a humidified 37° C. incubator. The day before treatment, cells were collected and seeded into 96-well plates (4,000 cells per well). On the second day, cells were treated with 3-fold serial dilution concentration of toxic payloads and ADCs. Each treatment was performed in eight triplicate data points. After the treatment of 72 hours, cell viability was assessed by CellTiter-Glo® kit (Promega) according to the manufacturer's instruction. At the end of the incubation, luminescence was measured using a SpectraMax i3x Multi Mode Detection Platform (Molecular Devices). Compound cytotoxicity was evaluated in comparison to cells treated with 0.05% PBS (ADCs) or 0.05% DMSO (toxic payload). IC50 values were calculated by fitting viability data with a four-parameter logistic equation using GraphPad prism 5.0 software.

[2] = test system: OVCAR-3 human ovarian cancer xenograft; test: OVCAR-3 xenograft model (Example 48); assay type: in vivo, female NOD SCID mice; conditions: for tumor growth: TGI≥58% considered significant
Experimental: (§1) Five mice were housed in each cage.
(§2) OVCAR-3 cells were subcutaneously (SC) implanted (1×10^7 cells in 1:1 PBS/matrigel mixture at 0.2 mL per mouse) into the right flank of female NOD SCID mice. […] Each of the vehicle, and DCBPR2002-4(DBCO-vc-MMAE) (5, 10, and 15 mg/kg) was intravenously administered once weekly for 3 weeks.
(§3) Differences are considered significant at *P<0.05.

[3] = test system: OVCAR-3 human ovarian cancer xenograft; test: OVCAR-3 xenograft model (Example 47); assay type: in vivo, female NOD SCID mice; conditions: for tumor growth / anti-tumor activity: TGI≥58% considered significant
Experimental: as §1
as §2, with “vehicle,” for “vehicle, and”, “(5” for “(5, 10,”, “15 mg/kg), and DCBPR2002-TM (15” for “15”
as §3

[4] = test system: KLM-1 human pancreatic cancer xenograft; test: KLM-1 xenograft model (Example 44); assay type: in vivo; conditions: for tumor growth / anti-tumor activity: TGI≥58% considered significant
Experimental: Each of the formulations was administered intravenously (IV) to the mice once weekly for three weeks.
as §1
When the average tumor volume had reached 200 mm^3, the mice were randomLy divided into 4 groups (N=6 per group). Each of the vehicle, DCBPR2002-4(DBCO-vc-MMAE) (15 and 30 mg/kg), and naked antibody (DCBPR2002, 30 mg/kg) was intravenously administered once weekly for 3 weeks.
as §3

[5] = In vivo PK in rats, MSD ECL total and conjugated antibody assays; conditions: for AUC(0−last) / AUC(0−∞) / C0 / CL / MRT / Vss / t1/2: 5 mg/kg via the tail vein, serum
Source text: This study used Meso Scale Discovery (MSD) Electrochemiluminescent (ECL) method to conduct the pharmacokinetic analysis of DCBPR2002-4(DBCO-vc-MMAE) in BALB/c mice and rat samples. The MSD assay can measure both conjugated and unconjugated antibodies. As illustrated in this example, or total antibody assay the plate is coated with goat anti-human IgG, which can capture all humanized antibodies (conjugated and unconjugated). For the conjugated antibody assay, the plate is coated with an antibody against the payload (drug), such as anti-MMAE antibody.
The in vivo pharmacokinetic study was designed for the comparison the linker-payload stability of trimannosyl-conjugated and cysteine-conjugated synthesis ADC (Adcetris). The rats were administered DCBPR2002-4(DBCO-vc-MMAE) and Adcetris at a dose level of 5 mg/kg via the tail vein. Serum samples were then obtained at different time points for determination of the concentrations of DCBPR2002-4(DBCO-vc-MMAE) and Adcetris in rats by MESO QuickPlex SQ 120 method. The pharmacokinetic parameters of DCBPR2002-4(DBCO-vc-MMAE) and Adcetris were analyzed by noncompartmental analysis using Phoenix™ for WinNonlin Program, version 6.3.

[6] = 5 mg/kg IV once weekly for 3 weeks
[7] = 10 mg/kg IV once weekly for 3 weeks
[8] = 15 mg/kg IV once weekly for 3 weeks
[9] = 30 mg/kg IV once weekly for 3 weeks

mesothelin protein, sequence (Q13421 with tags, fused parts or gaps): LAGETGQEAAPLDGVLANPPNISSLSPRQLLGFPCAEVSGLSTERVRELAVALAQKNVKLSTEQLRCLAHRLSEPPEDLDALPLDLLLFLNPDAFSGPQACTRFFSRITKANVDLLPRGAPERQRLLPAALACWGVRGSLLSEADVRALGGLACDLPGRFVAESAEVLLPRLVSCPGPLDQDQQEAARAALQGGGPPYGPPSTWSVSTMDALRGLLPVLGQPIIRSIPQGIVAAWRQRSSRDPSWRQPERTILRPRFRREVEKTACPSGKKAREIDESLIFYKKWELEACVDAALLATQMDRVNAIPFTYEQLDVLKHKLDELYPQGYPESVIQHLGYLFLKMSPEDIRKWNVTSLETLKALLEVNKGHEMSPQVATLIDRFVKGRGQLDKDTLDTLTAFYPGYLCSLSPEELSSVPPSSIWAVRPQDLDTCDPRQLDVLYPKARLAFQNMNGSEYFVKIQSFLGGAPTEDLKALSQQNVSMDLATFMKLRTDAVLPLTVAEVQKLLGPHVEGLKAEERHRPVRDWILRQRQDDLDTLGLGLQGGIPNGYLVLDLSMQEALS

B1: DCBPR2002-4(DBCO-vc-MMAE): DCBPR2002-4Az reacted with DBCO-vc-MMAE; trimannosyl-conjugated ADC, DAR 3.89 (conjugate)
VH: QVQLVQSGAEVKKPGASVKVSCKASGYSFTGYTMNWVRQAPGQGLEWMGLITPYNGASSYNQKFRGRVTMTRDTSISTAYMELSRLRSDDTAVYYCARGGYDGRGFDYWGQGTLVTVSS
VL: EIVLTQSPATLSLSPGERATLSCSASSSVSYMHWYQQKPGQAPRLLIYDTSKLASGIPARFSGSGSGTDFTLTISSLEPEDFAVYYCQQWSKHPLTFGQGTKVEIKR
Rmax(RU) (mesothelin protein): 55.99 RU
Ka (mesothelin protein; antibody/ADC captured on CM5 chip via anti-human IgG-Fc): 5.395E+6
dissociation rate constant (koff) (mesothelin protein; dissociation rate, antibody/ADC captured on CM5 chip): 1.17E−4
IC50 [1]: 1 nM
body weight changes [2, 6]: No body weight loss was observed
tumor growth [2, 6]: significantly reduced OVCAR-3 tumor growth with a dose-dependent manner
body weight changes [2, 7]: No body weight loss was observed
tumor growth [2, 7]: significantly reduced OVCAR-3 tumor growth with a dose-dependent manner
body weight changes [2, 8]: No body weight loss was observed
tumor growth [2, 8]: significantly reduced OVCAR-3 tumor growth with a dose-dependent manner
body weight changes [3, 6]: No body weight loss was observed
tumor growth / anti-tumor activity [3, 6]: significantly reduced OVCAR-3 tumor growth
body weight changes [3, 8]: No body weight loss was observed
tumor growth / anti-tumor activity [3, 8]: significantly reduced OVCAR-3 tumor growth
body weight changes [4, 8]: No body weight loss was observed
tumor growth / anti-tumor activity [4, 8]: significantly reduced KLM-1 tumor growth from Day 7 to Day 28
body weight changes [4, 9]: No body weight loss was observed
tumor growth / anti-tumor activity [4, 9]: significantly reduced KLM-1 tumor growth from Day 7 to Day 28
AUC(0−last) ([5]; Conjugated antibody): 2334.505 µg·h/mL
AUC(0−∞) ([5]; Conjugated antibody): 2400.45 µg·h/mL
C0 ([5]; Conjugated antibody): 80.955 µg/mL
CL ([5]; Conjugated antibody): 2.1 mL/h/kg
MRT ([5]; Conjugated antibody): 85.6 h
Vss ([5]; Conjugated antibody): 0.179 L/kg
t1/2 ([5]; Conjugated antibody): 148 ± 8.14 h
AUC(0−last) ([5]; Total antibody): 4013.185 µg·h/mL
AUC(0−∞) ([5]; Total antibody): 4363.325 µg·h/mL
C0 ([5]; Total antibody): 94.121 µg/mL
CL ([5]; Total antibody): 1.14 mL/h/kg
MRT ([5]; Total antibody): 160 h
Vss ([5]; Total antibody): 0.183 L/kg
t1/2 ([5]; Total antibody): 194 ± 35.0 h
difference between the curve of total antibody and conjugated antibody (stability of the conjugated linker-payload) ([5]; 5 mg/kg, compared with Adcetris): closed on DCBPR2002-4(DBCO-vc-MMAE) than that of Adcetris
